For 1 molecule, duration of the close contact and insertion rate k (reciprocal of the time required for a distance change from 6.2 to 4.0 nm in single-pair FRET traces), results are on record in paper PMC3602594.

The target of experiment [1] is Atto647N-YidC-511C (Escherichia coli) (UniProt P25714). Nature of the experiment: FRET or BRET; single-pair FRET by confocal microscopy with alternating laser excitation (514 nm / 635 nm); Atto520-labeled Pf3 coat protein added to Atto647N-labeled YidC reconstituted in DOPC proteoliposomes; 20 mM Tris-HCl pH 7.0, 100 mM NaCl, isopropanol from the Pf3 solution; about 0.2 nM of both labeled proteins; bursts recorded for 420 s.

The target in experiment [2] is Atto647N-YidC-442C (Escherichia coli) (UniProt P25714). The description is as above.
The target of experiment [3] is Atto647N-YidC-23C (Escherichia coli) (UniProt P25714). The experiment is described as above.
Experiment [4] has the same target.

Where no end group is shown, it is not given here.

Regarding MQSVITDVTGQLTAVC(Atto520‑maleimide)ADITTIGGAIIVLAAVVLGIRWIKAQFF (natural protein) [Atto520-Pf3-16C], the duration of the close contact in experiment [1], in experiment [2] and in experiment [3] was 10 ms in each case. This molecule also returned an insertion rate k (reciprocal of the time required for a distance change from 6.2 to 4.0 nm in single-pair FRET traces), at 15, 20, 25 and 30°C; k ≈ 250 s^−1 at 15°C in experiment [4] of 500 s⁻¹.
